Results reported in patent EP2074145B1.

Biological target: Amyloid Beta (antigen of the Amyloid Beta ELISA) (UniProt P05067)
Assay: Amyloid Beta ELISA; purified antibodies from stable NS0 cell lines

Sequence of Amyloid Beta (antigen of the Amyloid Beta ELISA) (P05067 672-713 limits assumed): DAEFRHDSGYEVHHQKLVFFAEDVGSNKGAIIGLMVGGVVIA

fold reduction of binding activity compared to chimeric control antibody C2 ChVHAF/ChVK: 2 fold
B1: humanized antibody C2 HuVH2/HuVK3 (antibody, human IgG4 S228P, kappa, V domains shown)
VH: EVQLVESGGGLVQPGGSLRLSCAASGFTFSSYGMSWVRQAPGKGLEWVASINSNGGSTYYPDSVKGRFTISRDNAKNSLYLQMNSLRAEDTAVYYCASGDYWGQGTTVTVSS
VL: DIVMTQSPLSLPVTPGEPASISCRSSQSLVYSNGDTYLHWYLQKPGQSPKLLIYKVSNRFSGVPDRFSGSGSGTDFTLKISRVEAEDVGVYYCSQSTHVPWTFGQGTKVEIKR
